Experimental data taken from patent US20230302155A1, “COMPOSITIONS AND METHODS FOR IN VIVO GENERATION OF CAR EXPRESSING CELLS” (Novartis AG, priority 2020, published 2023).
Where a chain is given by its changes, count along the chain named. In names and notes the source's numbering stands. Entries after “also recorded” stand apart in the source; their conditions may differ.

B1: #8: minor mature VEGF-C (103-227) with C137A mutation, SEQ ID NO: 735 (His) / 736 (protein)
chain: TEETIKFAAAHYNTEILKSIDNEWRKTQCMPREVAIDVGKEFGVATNTFFKPPCVSVYRCGGCCNSEGLQCMNTSTSYLSKTLFEITVPLSQGPKPVTISFANHTSCRCMSKLDVYRQVHSIIRR
B2: #7: minor mature VEGF-C (103-227), wild type, SEQ ID NO: 733 (His) / 734 (protein, listed as Homo sapiens)
chain: B1 chain with A35C
B3: #9: major mature VEGF-C (112-227) with C137A mutation, SEQ ID NO: 737 (His) / 738 (protein)
chain: AHYNTEILKSIDNEWRKTQCMPREVAIDVGKEFGVATNTFFKPPCVSVYRCGGCCNSEGLQCMNTSTSYLSKTLFEITVPLSQGPKPVTISFANHTSCRCMSKLDVYRQVHSIIRR
B4: #2: major mature VEGF-C (112-227), wild type, SEQ ID NO: 731 (His) / 732 (protein, listed as Homo sapiens)
chain: B3 chain with A26C

Columns and labels:
EGFRvIII CARTs = assay: Cytokine production of EGFRvIII CARTs stimulated by ligand-presenting MSRs; format: cell-based; details: lipid-coated MSRs, multiplex cytokine analysis
Method: Briefly, liposomes primarily composed of POPC with 1 mol % PE-biotin were formed using a thin film rehydration method and extrusion through a 100 nm polycarbonate membrane. Hydroxyl functionalized MSRs were incubated with the liposomes to allow the formation of a supported lipid bilayer on the MSR surface (FIG. 6). To functionalize the MSRs with CD3 and CD28 agonistic antibodies, MSRs were washed several times with PBS, incubated with streptavidin, and then tethered with biotinylated CD3 and CD28 antibodies. For MSR-immobilization of EGFRvIII CAR-binding peptides, a biotinylated EGFRvIII CAR-binding peptide was used (FIG. 7).
After incubation with the desired ligands, MSRs were washed several times with PBS and resuspended in culture medium at various concentrations and incubated with T cells. […] Cytokine production was assessed using a multiplex cytokine analysis method (Mesoscale Delivery V-Plex).

[1] = system: human dermal lymphatic endothelial cells (HDLECs); assay: HDLECs sprouting (tube formation) assay; format: cell-based; details: 600 μg of VEGF-C protein, overnight, phalloidin staining
Method: Human Dermal Lymphatic Endothelial Cells (HDLECs) were seeded (p0) and passaged at 75% confluence until p4 or enough cells were obtained for experiments. One ml was then aliquoted into Eppendorf tubes, treated with 600 μg of VEGF-C protein, and vortexed. Each treatment was added to warmed media in a 6 well plate and incubated overnight at 37 C (5% CO2). For imaging analysis cells were washed and then fixed with 3.7% formalin-0.05% Triton X-100 solution (fixing buffer), then washed and coated with 0.1% Triton X-100 solution (permeabilization buffer). After washing twice with PBS cells were coated with 0.05% Triton X-100 in 1% BSA solution (blocking buffer). DAPI and phalloidin staining was performed according to known protocols. After staining cells were washed twice with PBS and imaged.
An overview of the experimental setup of the in vitro sprouting assay on HDLECs to test the biological activity of VEGF-C variants is shown in FIG. 20A. HDLECs were first seeded (p0) and passaged at 75% confluence until p4 or enough cells were obtained for experiments. About 1 mL of the HDLECs was then aliquoted into Eppendorf tubes, treated with 600 μg of VEGF-C protein, and vortexed. Each treatment was added to warmed media in a 6 well plate and incubated overnight at 37 C (5% CO2). For imaging analysis, cells were washed and then fixed with 3.7% formalin-0.05% Triton X-100 solution (fixing buffer), then washed and coated with 0.1% Triton X-100 solution (permeabilization buffer). After washing twice with PBS, cells were coated with 0.05% Triton X-100 in 1% BSA solution (blocking buffer). DAPI and phalloidin staining was performed according to known protocols. After phalloidin staining, cells were washed twice with PBS, and imaged for tube formation.

[2] = system: lymphatic endothelial cells (LECs); assay: In vivo lymphangiogenesis in mouse skin after cryogel delivery (flow cytometry); parameters: species or system C57/BL6 mice; details: for in vivo lymphangiogenesis (LEC counts per mg of tissue): 10 μg VEGF-C in cryogel (0.25 mg/ml laponite), day 14
Method: (§1) Tissues were harvested from mice, weighted, and cut into very fine pieces with scissors. Samples were then enzymatically digested under constant stirring in of digestion media containing collagenase 4 and DNAse 1. Samples were then pipetted up and down. Following pipetting, digestion media containing collagenase D and DNAse 1 was added to the samples. Samples were pipetted up and down for 3 cycles. EDTA was added (5 mM) and cells were filtered through 70 μm filters and 40 uM mesh and resuspended in Fc blocking buffer. Cells were washed and stained for FACS analysis.
(§2) Cryogels (0.25 mg/ml laponite) containing 10 μg of different VEGF-C constructs were injected superficially into the dermis mice (N=5/group) at day 0. At day 14 mice were euthanized and the skin/cryogel (combined) were dissected for digestion and FACS analysis. Representative FACS plots of LECs (CD31^+, PDPN^+) are pre-gated on FSC-A/SSC-A, and CD45^− (FIG. 22). The results of FIG. 23 bear on the delivery of VEGF-C. Mice were injected with VEGF-C (N=12) or blank cryogels (N=10) synthesized as previously mentioned. Skin/gels from mice were harvested at timepoints day 7, 14, and 21, digested, and stained for FACS. LECs were gated on CD45^− CD31^+ PDPN^+. BECs were gated on CD45^− CD31^+ PDPN^−. CD4 and CD8 T Cells were gated on CD45^+ CD11b^−CD11c^−Thy1^+.
First, cryogels (0.25 mg/ml laponite) containing 10 μg of different VEGF-C forms, including the dimeric forms of the major and minor mature forms that are wild-type (#2 and #7, respectively) and the major and minor mature forms that comprise the C137A mutation (#9 and #8, respectively), were injected superficially into the dermis of mice (N=5/group) at day 0. At day 14 mice were euthanized and the skin/cryogel (combined) were dissected for digestion and FACS analysis (FIG. 22A). Specifically, tissues were harvested from mice, weighted, and cut into very fine pieces with scissors. Samples were then enzymatically digested under constant stirring of digestion media containing collagenase 4 and DNAse 1. Samples were then pipetted up and down. Following pipetting, digestion media containing collagenase D and DNAse 1 was added to the samples. Samples were pipetted up and down for 3 cycles. EDTA was added (5 mM) and cells were filtered through 70 μm filters and 40 μM mesh and resuspended in Fc blocking buffer. Cells were washed and stained for FACS analysis.
In addition, the response of skin lymphatics to […] VEGF-C delivered by alginate cryogels was measured. […] Skin/gels from mice were harvested as described above, at timepoints day 7, 14, and 21, digested, and stained for FACS. LECs were gated on CD45^− CD31^+ PDPN^+. BECs were gated on CD45^− CD31^+ PDPN^−. […] The number of cells per mg of tissue were also quantified.

[3] = system: CD4+ T cells and CD8+ T cells; assay: Immune infiltration of mouse skin after cryogel delivery (flow cytometry); format: in vivo, C57/BL6 mice; details: skin on top of the cryogels
Method: as §1
as §2, with “BECs were gated on CD45^− CD31^+ PDPN^−. CD4 and CD8 T Cells were gated on CD45^+ CD11b^−CD11c^−Thy1^+.” left out
In addition, the response of skin lymphatics to […] VEGF-C delivered by alginate cryogels was measured. […] The number of cells per mg of tissue were also quantified.

Molecule	interferon gamma and IL-2 production (EGFRvIII CARTs)	sprouting of HDLECs (tube formation) [1]	in vivo lymphangiogenesis (LEC counts per mg of tissue) ([2]; skin)	other results
free EGFRvIII CAR-binding peptide in solution: EGFRvIII CAR-binding peptide LEEKKGNYVVTDH (SEQ ID NO: 756) [reference compound]	no response	–	–	–
EGFRvIII CAR-binding peptide bound to the surface of the MSRs: biotinylated peptide LEEKKGNYVVTDH (SEQ ID NO: 756) coupled via streptavidin to lipid-coated MSRs	produced interferon gamma and IL-2	–	–	–
B1	–	better sprouting of HDLECs than the immature form	high in vivo lymphangiogenesis; also recorded: higher amounts of LECs compared to the dimers of the major and minor mature forms that are wild-type	blood vascular endothelial cells (BECs, CD45−CD31+PDPN−) ([2]; skin, 14 days after cryogel delivery): not affected; day of peak T cell / immune infiltration after cryogel delivery [3]: 14 days
B2	–	better sprouting of HDLECs than the immature form	–	time of peak lymphangiogenesis after cryogel delivery ([2]; 10 μg VEGF-C in alginate cryogel, subcutaneous): 14 days
B3	–	better sprouting of HDLECs than the immature form	high in vivo lymphangiogenesis; also recorded: higher amounts of LECs compared to the dimers of the major and minor mature forms that are wild-type	–
B4	–	better sprouting of HDLECs than the immature form	–	–
